Key:
[1] = target: S366 peptide (STING peptide substrate with serine 366)
[2] = target: A366 peptide (STING peptide substrate with alanine at 366)

B1: ULK2 (protein)
chain: MEVVGDFEYSKRDLVGHGAFAVVFRGRHRQKTDWEVAIKSINKKNLSKSQILLGKEIKILKELQHENIVALYDVQELPNSVFLVMEYCNGGDLADYLQAKGTLSEDTIRVFLHQIAAAMRILHSKGIIHRDLKPQNILLSYANRRKSSVSGIRIKIADFGFARYLHSNMMAATLCGSPMYMAPEVIMSQHYDAKADLWSIGTVIYQCLVGKPPFQANSPQDLRMFYEKNRSLMPSIPRETSPYLANLLLGLLQRNQKDRMDFEAFFSHPFLEQGPVKKSCPVPVPMYSGSVSGSSCGSSPSCRFASPPSLPDMQHIQEENLSSPPLGPPNYLQVSKDSASTSSKNSSCDTDDFVLVPHNISSDHSCDMPVGTAGRRASNEFLVCGGQCQPTVSPHSETAPIPVPTQIRNYQRIEQNLTSTASSGTNVHGSPRSAVVRRSNTSPMGFLRPGSCSPVPADTAQTVGRRLSTGSSRPYSPSPLVGTIPEQFSQCCCGHPQGHDSRSRNSSGSPVPQAQSPQSLLSGARLQSAPTLTDIYQNKQKLRKQHSDPVCPSHTGAGYSYSPQPSRPGSLGTSPTKHLGSSPRSSDWFFKTPLPTIIGSPTKTTAPFKIPKTQASSNLLALVTRHGPAEE
Activity (cpm) [1]: 156000 cpm | Fold induction [1]: 21.1 fold | Activity (cpm) [2]: 7380 cpm

B2: GRK7 (protein)
chain: MVDMGALDNLIANTAYLQARKPSDCDSKELQRRRRSLALPGLQGCAELRQKLSLNFHSLCEQQPIGRRLFRDFLATVPTFRKAATFLEDVQNWELAEEGPTKDSALQGLVATCASAPAPGNPQPFLSQAVATKCQAATTEEERVAAVTLAKAEAMAFLQEQPFKDFVTSAFYDKFLQWKLFEMQPVSDKYFTEFRVLGKGGFGEVCAVQVKNTGKMYACKKLDKKRLKKKGGEKMALLEKEILEKVSSPFIVSLAYAFESKTHLCLVMSLMNGGDLKFHIYNVGTRGLDMSRVIFYSAQIACGMLHLHELGIVYRDMKPENVLLDDLGNCRLSDLGLAVEMKGGKPITQRAGTNGYMAPEILMEKVSYSYPVDWFAMGCSIYEMVAGRTPFKDYKEKVSKEDLKQRTLQDEVKFQHDNFTEEAKDICRLFLAKKPEQRLGSREKSDDPRKHHFFKTINFPRLEAGLIEPPFVPDPSVVYAKDIAEIDDFSEVRGVEFDDKDKQFFKNFATGAVPIAWQEEIIETGLFEELNDPNRPTGCEEGNSSKSGVCLLL
Activity (cpm) [1]: 13100 cpm | Fold induction [1]: 1.81 fold | Activity (cpm) [2]: 7260 cpm

B3: TBK1 (protein kinase of the kinase panel) (protein)
chain: MQSTSNHLWLLSDILGQGATANVFRGRHKKTGDLFAIKVFNNISFLRPVDVQMREFEVLKKLNHKNIVKLFAIEEETTTRHKVLIMEFCPCGSLYTVLEEPSNAYGLPESEFLIVLRDVVGGMNHLRENGIVHRDIKPGNIMRVIGEDGQSVYKLTDFGAARELEDDEQFVSLYGTEEYLHPDMYERAVLRKDHQKKYGATVDLWSIGVTFYHAATGSLPFRPFEGPRRNKEVMYKIITGKPSGAISGVQKAENGPIDWSGDMPVSCSLSRGLQVLLTPVLANILEADQEKCWGFDQFFAETSDILHRMVIHVFSLQQMTAHKIYIHSYNTATIFHELVYKQTKIISSNQELIYEGRRLVLEPGRLAQHFPKTTEENPIFVVSREPLNTIGLIYEKISLPKVHPRYDLDGDASMAKAITGVVCYACRIASTLLLYQELMRKGIRWLIELIKDDYNETVHKKTEVVITLDFCIRNIEKTVKVYEKLMKINLEAAELGEISDIHTKLLRLSSSQGTIETSLQDIDSRLSPGGSLADAWAHQEGTHPKDRNVEKLQVLLNCMTEIYYQFKKDKAERRLAYNEEQIHKFDKQKLYYHATKAMTHFTDECVKKYEAFLNKSEEWIRKMLHLRKQLLSLTNQCFDIEEEVSKYQEYTNELQETLPQKMFTASSGIKHTMTPIYPSSNTLVEMTLGMKKLKEEMEGVVKELAENNHILERFGSLTMDGGLRNVDCL
Activity (cpm) [1]: 16700 cpm | Fold induction [1]: 2.52 fold | Activity (cpm) [2]: 6600 cpm

B4: ULK1 (protein)
chain: MEPGRGGTETVGKFEFSRKDLIGHGAFAVVFKGRHREKHDLEVAVKCINKKNLAKSQTLLGKEIKILKELKHENIVALYDFQEMANSVYLVMEYCNGGDLADYLHAMRTLSEDTIRLFLQQIAGAMRLLHSKGIIHRDLKPQNILLSNPAGRRANPNSIRVKIADFGFARYLQSNMMAATLCGSPMYMAPEVIMSQHYDGKADLWSIGTIVYQCLTGKAPFQASSPQDLRLFYEKNKTLVPTIPRETSAPLRQLLLALLQRNHKDRMDFDEFFHHPFLDASPSVRKSPPVPVPSYPSSGSGSSSSSSSTSHLASPPSLGEMQQLQKTLASPADTAGFLHSSRDSGGSKDSSCDTDDFVMVPAQFPGDLVAEAPSAKPPPDSLMCSGSSLVASAGLESHGRTPSPSPPCSSSPSPSGRAGPFSSSRCGASVPIPVPTQVQNYQRIERNLQSPTQFQTPRSSAIRRSGSTSPLGFARASPSPPAHAEHGGVLARKMSLGGGRPYTPSPQVGTIPERPGWSGTPSPQGAEMRGGRSPRPGSSAPEHSPRTSGLGCRLHSAPNLSDLHVVRPKLPKPPTDPLGAVFSPPQASPPQPSHGLQSCRNLRGSPKLPDFLQRNPLPPILGSPTKAVPSFDFPKTPSSQNLLALLARQ
Activity (cpm) [1]: 209000 cpm | Fold induction [1]: 17.1 fold | Activity (cpm) [2]: 12200 cpm

Reference: patent US20130039933
